# Data: patent publication US5885961A, “Methods of using epithelins to modulate cell proliferation” (Bristol-Myers Squibb Company, priority 1995, dated 1999)
# Entries after “also recorded” stand apart in the source; their conditions may differ. Where two headings read alike, the source gives them in different places.
# Tests used:
# [1] = test system: Balb/MK cells; assay: Growth stimulatory activity (GSA), 125I-deoxyuridine incorporation into DNA of murine keratinocytes; assay type: cell-based; conditions: FIG. 15A
# Experimental: FIG. 15(A-B). (FIG. 15A) Effect of epithelin 1 and epithelin 2 on the stimulation of ^125 I-deoxyuridine incorporation into DNA of the murine keratinocyte cell line Balb/MK. 2,000-4,000 cells were plated per well in 96 well plates in low-calcium medium containing 5% dialyzed FBS. Then GSA assays were performed as described in Section 6.2., infra. .circle-solid., epithelin 1; o, epithelin 2. (FIG. 15B) Effect of various concentrations of epithelin 2 on epithelin 1 (20 ng/ml) elicited incorporation of ^125 I-deoxyuridine into DNA of Balb/MK cells.
# Balb/MK cells were also used as indicator cells in 96 well plates to assess the growth inhibitory activity (GIA) or growth stimulatory activity (GSA) of a test material using ^125 I-deoxyuridine incorporation into DNA as described in the previous section.
# [2] = test system: mink lung CCL 64 cells; assay: 125I-deoxyuridine incorporation into DNA, CCL 64; assay type: cell-based
# [3] = target: EGF receptors (Homo sapiens, UniProt P00533); assay: Binding of 125I-EGF to its receptors
# [4] = test system: monkey kidney COS1 cells; assay: 125I-deoxyuridine incorporation into DNA, COS1; assay type: cell-based
# [5] = test system: human colon carcinoma cell line HCT 116; assay: 125I-deoxyuridine incorporation into DNA, HCT 116; assay type: cell-based; conditions: maximum dose tested: 20 ng/ml epithelin 1, 270 ng/ml epithelin 2
# [6] = test system: Balb/MK cells; assay: Murine keratinocyte growth assay (cell count); assay type: cell-based; conditions: FIG. 16A
# Experimental: FIG. 16(A-B). (FIG. 16A) Effect of epithelin 1 and epidermal growth factor (EGF) on the growth of Balb/MK cells. Assays were performed as described in Section 6.2., infra. .circle-solid., epithelin 1; o, EGF (FIG. 16B) Effect of various concentrations of epithelin 2 on the epithelin 1 (20 ng/ml) induced growth of murine keratinocytes.
# Balb/MK cells were plated at 1×10^4 cells per well in 1 ml of low calcium medium (Weissman and Aaronson, 1983, Cell 32:599-606; Carpenter and Zendegut, 1985, Anal. Biochem. 153:279-282) in 24-well Costar plates and incubated at 37° C. for 4-6 hours. Then media were removed and replaced with 1 ml of medium containing various concentrations of the test compound in triplicate. The control wells received only medium without any test material. The plates were incubated at 37° C. for 4 days, then medium was removed, wells were rinsed two times with 1 ml of phosphate-buffered saline, and the cells were detached with trypsin-EDTA and counted.
# [7] = test system: A431 human epidermoid carcinoma cells; assay: Cell growth inhibitory activity (GIA), 125I-deoxyuridine incorporation into DNA; assay type: cell-based; conditions: for potency relative to epithelin 2 in inhibiting A431 cells: epithelin 1 vs epithelin 2
# Experimental: The cell growth inhibitory activity (GIA) assays were performed in flat-bottom 96 well plates (Falcon 3072). Human epidermoid carcinoma of vulva cells (A431) were used as test cells for GIA. 3.5×10^3 cells in 50 μl of test medium (DMEM supplemented with 5% heat inactivated fetal bovine serum (FBS), penicillin/streptomycin (PS) and glutamine) were placed in all wells except peripheral wells. The peripheral wells received 50 μl PBS. Three hours later, 50 μl of test sample in test medium was added to each well, while control wells received only 50 μl of test medium. Three wells were used for each concentration of test sample. Plates were incubated at 37° C. for 2-3 days. Then, 100 μl of a solution of […] (^125 I-IUdR, 4Ci/mg-0.5 mCi/ml, 2 μl/ml in test medium) was added to each well and plates were incubated at 37° C. After 4-6 hours, the medium was aspirated from the wells, which were then washed once with 200 μl PBS. Then, 200 μl methanol was added to each well, plates were incubated for 10 minutes at room temperature, and the methanol was removed by aspiration. 200 μl of 1M sodium hydroxide was added to each well, the plates were incubated for 30 minutes at 37° C. Sodium hydroxide was removed with titertek plugs (Flow Labs). The plugs were transferred into 12×75 mm plastic tubes and counted in a gamma counter to quantify ^125 I-IUdR incorporation.
# [8] = test system: human fibroblasts and several other human tumor cells; assay: 125I-deoxyuridine incorporation into DNA, human fibroblasts and other human tumor cells; assay type: cell-based; conditions: maximum dose tested: 20 ng/ml epithelin 1, 270 ng/ml epithelin 2
# [9] = test system: NRK cells; assay: Mitogenic activity on NRK cells in monolayer; assay type: cell-based, rat
# [10] = test system: NRK-SA6 cells; assay: Soft agar colony assay in the presence of TGFβ; assay type: cell-based, rat; conditions: in the presence of TGFβ 1 ng/ml, FIG. 17
# Experimental: FIG. 17. Effect of epithelin 1 and 2 on NRK-SA6 cell colony formation in soft agar in the presence of TFGβ (1 ng/ml). The colony formation assay used is described in Section 6.2.3, infra. Solid bars, epithelin 1; stippled bar, epidermal growth factor; open bar, epithelin 2; hatched bar, 20 ng/ml epithelin 1 plus 500 ng/ml epithelin 2.
# A 0.38 ml base layer of 0.5% agar (Agar Noble; Difco Laboratories, Detroit, Mich.) in DMEM containing 10% heat inactivated FBS was added to 24 well Costar tissue culture plates. 0.38 ml of 0.3% agar containing the same medium-FBS mixture, 6-12×10^3 test cells, and the test proteins at various concentrations were overlaid on the basal layer of agar. The plates were incubated at 37° C. in a humidified atmosphere of 5% CO2 in air. Colonies were enumerated unfixed and unstained, and the number of colonies was scored between days 7 and 10. Colonies were defined as a cluster of at least eight cells.
# [11] = Resistance of bioactivity to chemical, heat and enzyme treatment; assay type: physicochemical
# Experimental: Epithelin 1 and epithelin 2 are resistant to treatment with 1M acetic acid, 1M ammonium hydroxide, 6M urea, 0.01M sodium metaperiodate, to heating at 56° C. for 30 minutes, and to treatment with various glycosidases or lipases. However, epithelin activity was sensitive to reduction, to reduction and 4-vinylpyridine treatment, and to digestion with proteinases such as trypsin, endoproteinase Lys-C, and endoproteinase Glu-C (V8).
molecule,measurement,setting,value
"epithelin 1: single chain polypeptide of 56 amino acid residues, 12 cysteines, purified from rat kidney; also expressed recombinantly in COS cells (protein) LPGYPVNEVKCDLEVSCPDGYTCCRLNTGAWGCCPFTKAVCCEDHIHCCPAGFQCHTETGTCEL",effect on 125I-deoxyuridine incorporation into DNA of Balb/MK cells,[1],stimulated the ^125 I-deoxyuridine incorporation in a dose-dependent manner
same,effect on 125I-deoxyuridine incorporation into DNA,[2],significantly inhibited
same,effect on binding of 125I-EGF to its receptors,[3],Neither epithelin 1 nor epithelin 2 significantly affected the binding
same,effect on 125I-deoxyuridine incorporation into DNA,[4],significantly inhibited
same,effect on growth of HCT 116 cells,[5],slighly inhibited
same,effect on growth of Balb/MK cells (rodent keratinocytes),[6],did not proliferate in the absence of EGF or epithelin 1
same,effect on A431 cells,[7],inhibitory effect
same,50% inhibition of DNA synthesis (125I-deoxyuridine incorporation),"[7]; A431 cells, purified protein, FIG. 14",12.8 ng/well
same,IC50,"[7]; A431 cells, read-out: concentration for 50% inhibition of 125I-deoxyuridine incorporation",~21 nM
same,potency relative to epithelin 2 in inhibiting A431 cells,[7],~36 times
same,potency relative to epithelin 2 in inhibiting A431 cells,[7]; listed as Epithelin 1,about 36 times
same,Specific Activity,"[7]; final purification step Anal. Tsk-250, pool 1b","20,609 Units/mg"
same,Specific Activity,"[7]; final purification step Anal. Tsk-250, pool 2b","21,048 Units/mg"
same,specific activity of purified protein (GIA),[7]; one unit = amount inhibiting 125I-deoxyuridine incorporation into A431 cells by 50%,about 2.1×10^4 units/mg protein
same,calculated specific activity relative to epithelin 2,[7]; purified proteins,ten
same,growth inhibitory activity secreted by transfected COS cells,"[7]; recombinant, supernatant of cβrEPN1 transfection partially purified on TSK-250, A431 cells",approximately 25 GIA units/100 mm plate
same,effect on human fibroblasts and several other human tumor cells,[8],Neither protein exhibited any significant effect
same,mitogenic activity on NRK cells in monolayer,[9],exhibited mitogenic activity
same,anchorage-independent growth (colony formation in soft agar) of NRK cells,[10],induced the anchorage-independent growth of NRK cells in a dose-dependent manner; also recorded: can induce anchorage-independent growth
same,"resistance to 1M acetic acid, 1M ammonium hydroxide, 6M urea, 0.01M sodium metaperiodate, heating at 56° C. for 30 minutes, glycosidases or lipases",[11],stable
same,"sensitivity of activity to reduction, reduction and 4-vinylpyridine treatment, and proteinases (trypsin, Lys-C, Glu-C)",[11],sensitive
same,"resistance to 1M acetic acid, 1M ammonium hydroxide, 6M urea, 0.01M sodium metaperiodate, heating at 56° C. for 30 minutes, glycosidases or lipases",[11]; listed as Epithelin 1,resistant
"epithelin precursor: unprocessed 589-residue rat preprotein (SEQ ID NO:2) with 7 cysteine-rich motifs, expressed in COS cells (protein) MWILVSWLALVARLVAGTQCPDGQFCPVACCLDQGGANYSCCNPLLDTWPIITSRRLDGSCQIRDHCPDGYSCLLTVSGTSSCCPFSEGVSCDDGQHCCPRGFHCSADGKSCSQISDSLLGAVQCPGSQFECPDSATCCIMIDGSWGCCPMPQASCCEDRVHCCPHGASCDLVHTRCISPTGTHPLLKKFPAQRTNRAVAFPFSVVCPDAKTQCPDDSTCCELPTGKYGCCPMPNAICCSDHLHCCPQDTVCDLIQSKCISKDYTTDLMTKLPGYPVNEVKCDLEVSCPDGYTCCRLNTGAWGCCPFTKAVCCEDHIHCCPAGFQCHTETGTCELGVLQVPWMKKVTASLSLPDPQILKNDVPCDDFSSCPSNNTCCRLSSGDWGCCPIPEAVCCLDHQHCCPQGFKCMDEGYCQKGDRMVAGLEKMPVRQTTLLQHGDIGCDQHTSCPVGQTCCPSLKGSWACCQLPHAVCCEDRQHCCPAGYTCNVKARTCEKDAGSVQPSMDLTFGSKVGNVECGAGHFCHDNQSCCKDSQGGWACCPYVKGVCCRDGRHCCPIGFHCSAKGTKCLRKKTPRWDILLRDPAPRPLL",effect on growth of Balb/MK cells (rodent keratinocytes),[6],no activity
same,effect on A431 cells,[7],no activity
same,anchorage-independent growth (colony formation in soft agar) of NRK cells,[10],no activity
